± gives the standard deviation of the averaged measurements.
Assays:
hTERT-HMEC = assay: percentage of EdU-negative (G0-arrested) nuclei per well, 72 h; higher = more G0 arrest; details: reference: sequence is the full UniProt precursor, the tested protein was the secreted form or ectodomain
MCF7 = assay: as above; details: reference: sequence is the full UniProt precursor, the tested protein was the secreted form or ectodomain
[1] = protein concentration 0.03125 µM
[2] = protein concentration 0.3125 µM
[3] = protein concentration 0.01525 µM
[4] = protein concentration 0.1525 µM
[5] = protein concentration 0.0135 µM
[6] = protein concentration 0.0225 µM
[7] = protein concentration 0.0282857 µM
[8] = protein concentration 0.282857 µM
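Also: secreted proteins added to cultured cells, EdU pulse at the end, nuclei found by Hoechst imaging, EdU status from nuclear versus surrounding ring intensity ratio, PBS as neutral control.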

MSERKEGRGKGKGKKKERGSGKKPESAAGSQSPALPPRLKEMKSQESAAGSKLVLRCETSSEYSSLRFKWFKNGNELNRKNKPQNIKIQKKPGKSELRINKASLADSGEYMCKVISKLGNDSASANITIVESNEIITGMPASTEGAYVSSESPIRISVSTEGANTSSSTSTSTTGTSHLVKCAEKEKTFCVNGGECFMVKDLSNPSRYLCKCQPGFTGARCTENVPMKVQNQEKAEELYQKRVLTITGICIALLVVGIMCVVAYCKTKKQRKKLHDRLRQSLRSERNNMMNIANGPHHPNPPPENVQLVNQYVSKNVISSEHIVEREAETSFSTSHYTSTAHHSTTVTQTPSHSWSNGHTESILSESHSVIVMSSVENSRHSSPTGGPRGRLNGTGGPRECNSFLRHARETPDSYRDSPHSERYVSAMTTPARMSPVDFHTPSSPKSPPSEMSPPVSSMTVSMPSMAVSPFMEEERPLLLVTPPRLREKKFDHHPQQFSSFHHNPAHDSNSLPASPLRIVEDEEYETTQEYEPAQEPVKKLANSRRAKRTKPNGHIANRLEVDSNTSSQSSNSESETEDERVGEDTPFLGIQNPLAASLEATPAFRLADSRTNPAGRFSTQEEIQARLSSVIANQDPIAV
percentage of EdU-negative (hTERT-HMEC; [1]): 4.23 ± 0.16%
percentage of EdU-negative (hTERT-HMEC; [2]): 4.694 ± 0.041%
percentage of EdU-negative (MCF7; [1]): 23.8 ± 3.8%
percentage of EdU-negative (MCF7; [2]): 24.8 ± 0.83%

MGPGRPAPAPWPRHLLRCVLLLGCLHLGRPGAPGDAALPEPNVFLIFSHGLQGCLEAQGGQVRVTPACNTSLPAQRWKWVSRNRLFNLGTMQCLGTGWPGTNTTASLGMYECDREALNLRWHCRTLGDQLSLLLGARTSNISKPGTLERGDQTRSGQWRIYGSEEDLCALPYHEVYTIQGNSHGKPCTIPFKYDNQWFHGCTSTGREDGHLWCATTQDYGKDERWGFCPIKSNDCETFWDKDQLTDSCYQFNFQSTLSWREAWASCEQQGADLLSITEIHEQTYINGLLTGYSSTLWIGLNDLDTSGGWQWSDNSPLKYLNWESDQPDNPSEENCGVIRTESSGGWQNRDCSIALPYVCKKKPNATAEPTPPDRWANVKVECEPSWQPFQGHCYRLQAEKRSWQESKKACLRGGGDLVSIHSMAELEFITKQIKQEVEELWIGLNDLKLQMNFEWSDGSLVSFTHWHPFEPNNFRDSLEDCVTIWGPEGRWNDSPCNQSLPSICKKAGQLSQGAAEEDHGCRKGWTWHSPSCYWLGEDQVTYSEARRLCTDHGSQLVTITNRFEQAFVSSLIYNWEGEYFWTALQDLNSTGSFFWLSGDEVMYTHWNRDQPGYSRGGCVALATGSAMGLWEVKNCTSFRARYICRQSLGTPVTPELPGPDPTPSLTGSCPQGWASDTKLRYCYKVFSSERLQDKKSWVQAQGACQELGAQLLSLASYEEEHFVANMLNKIFGESEPEIHEQHWFWIGLNRRDPRGGQSWRWSDGVGFSYHNFDRSRHDDDDIRGCAVLDLASLQWVAMQCDTQLDWICKIPRGTDVREPDDSPQGRREWLRFQEAEYKFFEHHSTWAQAQRICTWFQAELTSVHSQAELDFLSHNLQKFSRAQEQHWWIGLHTSESDGRFRWTDGSIINFISWAPGKPRPVGKDKKCVYMTASREDWGDQRCLTALPYICKRSNVTKETQPPDLPTTALGGCPSDWIQFLNKCFQVQGQEPQSRVKWSEAQFSCEQQEAQLVTITNPLEQAFITASLPNVTFDLWIGLHASQRDFQWVEQEPLMYANWAPGEPSGPSPAPSGNKPTSCAVVLHSPSAHFTGRWDDRSCTEETHGFICQKGTDPSLSPSPAALPPAPGTELSYLNGTFRLLQKPLRWHDALLLCESRNASLAYVPDPYTQAFLTQAARGLRTPLWIGLAGEEGSRRYSWVSEEPLNYVGWQDGEPQQPGGCTYVDVDGAWRTTSCDTKLQGAVCGVSSGPPPPRRISYHGSCPQGLADSAWIPFREHCYSFHMELLLGHKEARQRCQRAGGAVLSILDEMENVFVWEHLQSYEGQSRGAWLGMNFNPKGGTLVWQDNTAVNYSNWGPPGLGPSMLSHNSCYWIQSNSGLWRPGACTNITMGVVCKLPRAEQSSFSPSALPENPAALVVVLMAVLLLLALLTAALILYRRRQSIERGAFEGARYSRSSSSPTEATEKNILVSDMEMNEQQE [Q9UBG0]
percentage of EdU-negative (hTERT-HMEC; [3]): 4.54 ± 0.35%
percentage of EdU-negative (hTERT-HMEC; [4]): 6.08 ± 1.1%
percentage of EdU-negative (MCF7; [3]): 25.5 ± 1.7%
percentage of EdU-negative (MCF7; [4]): 24.5 ± 0.7%

MSSEEGKLFVGGLNFNTDEQALEDHFSSFGPISEVVVVKDRETQRSRGFGFITFTNPEHASVAMRAMNGESLDGRQIRVDHAGKSARGTRGGGFGAHGRGRSYSRGGGDQGYGSGRYYDSRPGGYGYGYGRSRDYNGRNQGGYDRYSGGNYRDNYDN
percentage of EdU-negative (hTERT-HMEC; [5]): 5 ± 0.36%
percentage of EdU-negative (hTERT-HMEC; protein concentration 0.135 µM): 8.05 ± 0.55%
percentage of EdU-negative (MCF7; [5]): 25.1 ± 3.6%
percentage of EdU-negative (MCF7; protein concentration 0.135 µM): 27 ± 1.7%

MKPLLVVFVFLFLWDPVLAGINSLSSEMHKKCYKNGICRLECYESEMLVAYCMFQLECCVKGNPAP [Q4QY38]
percentage of EdU-negative (hTERT-HMEC; [6]): 4.56 ± 0.45%
percentage of EdU-negative (hTERT-HMEC; protein concentration 0.225 µM): 5.39 ± 1.7%
percentage of EdU-negative (MCF7; [6]): 26.33 ± 0.082%
percentage of EdU-negative (MCF7; protein concentration 0.225 µM): 27 ± 0.67%

MSSWSRQRPKSPGGIQPHVSRTLFLLLLLAASAWGVTLSPKDCQVFRSDHGSSISCQPPAEIPGYLPADTVHLAVEFFNLTHLPANLLQGASKLQELHLSSNGLESLSPEFLRPVPQLRVLDLTRNALTGLPPGLFQASATLDTLVLKENQLEVLEVSWLHGLKALGHLDLSGNRLRKLPPGLLANFTLLRTLDLGENQLETLPPDLLRGPLQLERLHLEGNKLQVLGKDLLLPQPDLRYLFLNGNKLARVAAGAFQGLRQLDMLDLSNNSLASVPEGLWASLGQPNWDMRDGFDISGNPWICDQNLSDLYRWLQAQKDKMFSQNDTRCAGPEAVKGQTLLAVAKSQ
percentage of EdU-negative (hTERT-HMEC; [7]): 4.97 ± 0.88%
percentage of EdU-negative (hTERT-HMEC; [8]): 6.814 ± 0.037%
percentage of EdU-negative (MCF7; [7]): 22.3 ± 2.4%
percentage of EdU-negative (MCF7; [8]): 25.7 ± 1.4%

Reference: the supplement of paper PMC11316812
